Experimental data as given in PMC9867282.

Target: cytosolic carboxypeptidase 6 (CCP6), endogenous (human (endogenous in HEK 293T)) (UniProt Q5VU57)
Experiment: proximity ligation; Duolink PLA in HEK 293T cells fixed with 4% paraformaldehyde; primary antibodies against the two proteins; confocal microscopy; three independent experiments, at least 75 cells in total

Sequence of UniProt Q5VU57 (Q5VU57 whole entry): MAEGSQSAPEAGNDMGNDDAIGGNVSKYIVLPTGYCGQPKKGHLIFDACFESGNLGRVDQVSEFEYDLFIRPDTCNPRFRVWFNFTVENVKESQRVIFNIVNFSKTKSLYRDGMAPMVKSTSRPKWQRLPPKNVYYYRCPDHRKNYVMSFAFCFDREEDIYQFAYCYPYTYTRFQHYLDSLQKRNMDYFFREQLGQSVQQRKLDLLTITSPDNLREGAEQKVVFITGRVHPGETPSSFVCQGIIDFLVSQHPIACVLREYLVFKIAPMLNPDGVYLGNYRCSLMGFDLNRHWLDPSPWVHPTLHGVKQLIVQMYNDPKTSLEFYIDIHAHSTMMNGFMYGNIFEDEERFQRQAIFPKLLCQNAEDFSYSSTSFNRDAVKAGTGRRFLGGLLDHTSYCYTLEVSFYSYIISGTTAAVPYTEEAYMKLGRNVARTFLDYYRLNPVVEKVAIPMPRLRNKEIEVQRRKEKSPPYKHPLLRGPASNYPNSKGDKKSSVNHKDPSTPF

Row | percent of cells with a positive PLA signal [%] | Substance
1 | 52 | NudC (from UniProt Q9Y266 1-331) (natural protein)
2 | 73 | Pericentriolar material 1 protein PCM1 (from UniProt Q15154 1-2024) (natural protein)
3 | 37 | Progesterone-induced-blocking factor 1 PIBF1 (from UniProt Q8WXW3 1-757) (natural protein)
